This is an account of results in the nanobody polyreactivity screen of Harvey et al. (2022).

The data set in a line: yeast display, Sf9 membrane polyspecificity reagent, FACS + sequencing; frameworks hold sequencing errors. The essentials:
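Galactose induction of a Saccharomyces cerevisiae BJ5465 synthetic nanobody display library ran 36–48 hours. The cells were then stained for 1 hour at 4 °C with 10% biotinylated, detergent-solubilized Sf9 membrane reagent, pulled down on streptavidin microbeads and FACS-sorted into low and high (top ~1%) gates on expression and reagent-binding fluorescence. Labels for polyreactivity follow the gate of origin.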
Consider “QVQLVESGGGLVQAGGSLRLSCAASGSIFVRNGMGWYRQAPGKERELVASFTSGTITYYADSVKGRFTISRDNARNTVYLQMNRLKPDDTAVYYCAARRDRGRVKFYYWGQGTQVTVSS”, for which the “polyreactivity (PSR sort gate)” value is given as “high polyreactivity”. The value for “QVQLVESGGGLVQAGGSLRLSCAASGFTYDLNAMGWYRQAPGKEREFVATISQSTGSTYYADSVKGRFTISRDNAKNTVYLQMNSLKPEDTAVYYCNKDRPYTLTWGLYEYWGQGTQVTVSS” was “low polyreactivity”. The value for “QVQLVESGGGLVQAGGSLRLNCAASGSIFTGNAMGWYRQAPGKERELVASITTSTDSTYYADSVKGRFTISRDNAKNTVYLQMNRLKTEDTAVYYCAAEYAVAWKYGLYFYFHFDYWGQGTQVTVSS” was “low polyreactivity”; that for “QVQLVESGGGLVQAGGSLRLSCAASGSNYYYYAIGWYRQAPGKERELVAAISWSGASTFYADSVKGRFTSSRDNAKNTVYLQMNSLKPEDTAVYYCAARYYGQPQYQPLYYWGQGTQVTVSS” was “high polyreactivity”; that for “QVQLVESGGGLVQAGGSLRLSCAASGSTFFRYAMGWYRQAPGKERELVAAISKSGASTYYADSVKGRFTISRDNAKNTVYLQMNSLNPEDTAVYYCNADVKKSSAREWQYGYDYWGQGTQVTVSS” was “low polyreactivity”.

In the case of “QVQLVESGGGLVQAGGSLRLSCAASGFIFSYYAMGWYRQAPGKERELVAAINYSGGRTYYADSVKGRFTISRDYAKNTVYLQMNSLKPEDTAVYYCNAVTFGRRAFDYWGQGTQVTVSS”, the “polyreactivity (PSR sort gate)” value is given as “high polyreactivity”. To “QVQLVESGGGLVQAGGSLRLSCAASGRNFRVYAMGWYRQAPGKESELVAAITSGGTTYADSVKGRFTISRDNAKNTGYLQMNSLQPEDTAVYYCAARYYIHRGYDYDYWGQGTQVTVSS” belongs “high polyreactivity”; to “QVQLVGSGGGLVQAGGSLRLSCAASGSTIKYYAMGWYRQAPGKERELVARITSDGGSTFYADSVKGRFTISRDNAKNTAYVQMNSLKPEDPAVYYCNTAYAFRHWWFYPMDYWGQGTQVTVSA”, “high polyreactivity”; to “QVQLVESGGGLVQAAGSLRLSCAASGRISRTNAMGWYRQAPGKERQLVATINSGTGTNYADSVKGRFTISRDNAKNTVYLQMNSLKPEDTEVYYCAARYRYWPKYYPVSYRYDYWGQGTQVTVSS”, “low polyreactivity”. As to “QVQLVESGGCLVQAGGSLRLSCAASGFTFVRNAMGWYRQAPGKDRELVAAISGSGGRTYYADSVKGRFTISRDNAKNTVYLQMNSVKPEDTAVYYCNTASAYEYEYWGQGSQVTVSS”, the “polyreactivity (PSR sort gate)” value was “high polyreactivity”. As for “QVQLVESGGGLVQAGGILRLSCAASGFIFTANDMGWYIQAPGKVRELVAAISSGGRTYYADSVKGRFTISRDNAKNSVYFQKNSLKPEDTAVYYCARDLYVRNGQRARYDSWGQGTQVTVSS”, the “polyreactivity (PSR sort gate)” value is recorded as “high polyreactivity”. To “QVQLVESGGGLVQAGGSLRLSCAASGSTFFGNAMGWYRQAPGKERELVAAITSGGSTNYADSVKGRFTISRDNAKNTVYFQMNSLKPEDTAVYYCAKPSRWGWTGFYAYDYWGQGTQVTVSS” belongs “low polyreactivity”; to “QVQLVESGGGLVQAGGSLRLSCAASGIIFPFYMGWYRQAPGKEREFVADITYSGGSTYYADSVKGRFTISRDNAKNTVYLQMNSLKPEDTAVYYCAAKFYWRGQSFRSGNFYWGQGTQVTVSS”, “high polyreactivity”; to “QVQLVESGGGLVQAGGSLRLSCAASGRTFGSNAMGWYRQAPGKERELVAVISRRAGSTYADSVKGRFTISRDNAKNTVYLQMNSLKPEDTAVYYCATRWLYHQYYYWGQGTQVTVSS”, “high polyreactivity”. To “QVQLVESGGGLLQAGGSLRLSCAASGSISAQYALGWYRQAPGKERELVAAIDFSGGSTYYADSVKGRFTISRDNAKNTVYLQRNSLKPEDTAVYYCAARGDGDPSTDITLVEYDYWGQGTQVTVSS” belongs “low polyreactivity”; to “QVQLVESGGGLVQAGGSLSLSCAASGSTFVENAMGWYRPAPGKERELVAGISIGGITYYADSVKGRFTISRDNAKNTVYLQMNSLKPEDTAVYYCGKRHKRTRNKYYYWGQGTQVNVSS”, “high polyreactivity”.
